Measured values taken from the supplement of paper PMC9732359.
± gives the uncertainty stated by the source.

test: protein stability index of a GFP-peptide fusion (yeast GPS) (PSI 1-4); higher = more stable; sorted into four equal gates, so the index is relative within each strain; details: doa10∆
Outline: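 The protein stability index of a peptide was calculated by multiplying its read frequency in each gate by that gate's number and adding the products. The peptides were tiled 17-residue stretches of yeast proteins, fused downstream of GFP on a Cherry-expressing plasmid and carried in yeast as a pooled library. Mid-log cultures in leucine-free medium were sorted into four equal gates by GFP/Cherry ratio, and each gate's plasmids were PCR-amplified and Illumina-sequenced.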

Going from RNEDARRNLRYGDRMKL [RPO31] to RNEKRMFLEFQSTQTDL [SMC2], the protein stability index falls from 3.37 ± 0.096 to 2.53 ± 0.19.

First: RNLNNLKQENAYLLIRR [RPB8]
Second: RNNVMLLIATNLKEYNK [SRB8]
The protein stability index of the first is higher: 3.14 ± 0.072 for the first, 2.44 ± 0.11 for the second.

RNSKLLNTKSIQIDEET [MCD1] and RNSNPENTVGLISGAGA [RPN10] are within error of each other in protein stability index: 3.21 ± 0.23 for the first, 2.93 ± 0.11 for the second.

RNVGKTLVNKSTGLKNA [RPS1B] and RNVGKTLVNKSTGLKSA [RPS1A] are the same in protein stability index: 2.81 ± 0.098 for the first, 2.81 ± 0.098 for the second.

Going from RNVTKGDIVRMLETAGF [SMC3] to RPDGVHVINVGKTWEKL [RPS0A], the protein stability index rises from 2.81 ± 0.099 to 3.33 ± 0.12.

Compared with RPDIVHTVFTSVNKNKR [RPL4A], RPEQLSNIIHDESDTIS [SNF6] is higher in protein stability index: 1.26 ± 0.088 for the first, 1.82 ± 0.09 for the second.

RPFGVALLIAGHDADDG [PUP2] and RPLPQWIRLRTNNTIRY [RPL39] are within error of each other in protein stability index: 1.66 ± 0.16 for the first, 1.85 ± 0.056 for the second.

First: RPNLPTHNFKLSGVSNS [RGR1]
Second: RQCFREKANDIGFHKYR [RPS29B]
The protein stability index of the first is lower: 1.72 ± 0.13 for the first, 3.34 ± 0.15 for the second.

First: RQQQENSSKIITLDLSN [SMC1]
Second: RRAAYGVVRYVMESGAK [RPS3]
The protein stability index of the first is higher: 3.22 ± 0.11 for the first, 1.5 ± 0.1 for the second.

Compared with RRISSMPGGYFHSEISP [YAR002W/NUP60], RRRREGKTDYYQRKRLV [RPL5] is higher in protein stability index: 2.27 ± 0.14 for the first, 3.31 ± 0.094 for the second.

First: RRSTPFSKIAEYYRIQK [ESC2]
Second: RRVPKELAVENPLAKTM [SEC65]
The protein stability index of the first is lower: 2.77 ± 0.071 for the first, 2.99 ± 0.052 for the second.

RSDSYMLHKVLENKADP [RPT6] and RSGSNAAASLPSKKLKT [RPC82] are within error of each other in protein stability index: 2.65 ± 0.1 for the first, 2.71 ± 0.068 for the second.

Going from RSINNLIQEHDSRKNRE [BRN1] to RSKNLIFNGETLEDALR [GRR1], the protein stability index falls from 3.24 ± 0.065 to 2.92 ± 0.093.

First: RSMLTVVRNMLALTTLS [YCG1]
Second: RSRMLPTITLDDVYRPA [SNF5]
The protein stability index of the first is lower: 1.91 ± 0.061 for the first, 3.12 ± 0.081 for the second.

Going from RTFRLNECVCTPYNADF [RPO31] to RTKTPGPGGQAALRALA [RPS14B], the protein stability index rises from 2.25 ± 0.045 to 2.39 ± 0.077.

Compared with RTMDDIKDSVREVGTKF [ECM29], RVADEDANLNDLPETGF [IRR1] is lower in protein stability index: 3.35 ± 0.11 for the first, 3 ± 0.095 for the second.

Compared with RVARRNAARKAEASGEA [RPS9A], RVFRTRFQDGTSVVSIM [SMC2] is lower in protein stability index: 3.32 ± 0.13 for the first, 2.07 ± 0.099 for the second.

Compared with RVHDQPLIWQLLQSSII [POP3], RVIKDFKKLNSKNMSKS [YMR153W/NUP53] is higher in protein stability index: 1.43 ± 0.062 for the first, 1.95 ± 0.16 for the second.

Compared with RVKDPQWLIMLGICTHL [RIP1], RVKIANTSAATVHTATS [SSN2] is higher in protein stability index: 2.62 ± 0.064 for the first, 2.86 ± 0.1 for the second.

First: RVLTQDGRVYIGQLMAF [SMB1]
Second: RVNLSENTPEPDLPALE [SMC4]
The protein stability index of the first is higher: 3.48 ± 0.098 for the first, 2.26 ± 0.091 for the second.

Going from RVWAEYATKRQEAIQQN [PRP8] to RYADAGNIDTKNNILGS [RRP43], the protein stability index rises from 2.37 ± 0.15 to 3.31 ± 0.062.

RYIWRSLKDLSSLRNQE [RPN3] and RYKFPGQQKIILSKKWG [RPL10] are within error of each other in protein stability index: 2.77 ± 0.14 for the first, 2.69 ± 0.22 for the second.

Going from RYKPGTVALREIRRFQK [HHT1] to RYSRQFINNVLSNPSNQ [GRR1], the protein stability index falls from 3.19 ± 0.11 to 2.28 ± 0.08.

Going from SAAGNKAIPTFSFGKPF [YIL149C/MLP2] to SAAKASQSRSAKAGLTF [HTA1], the protein stability index rises from 2.73 ± 0.046 to 3.06 ± 0.081.

First: SAIDVLDPLTKDPVDFV [RPN2]
Second: SAKMILLSDPTITIKSY [PRP8]
The protein stability index of the first is higher: 3.21 ± 0.088 for the first, 2.23 ± 0.078 for the second.

Compared with SALIENNLFRIIAELSF [YJL039C/NUP192], SANVELFKRDCNQMENL [YCS4] is higher in protein stability index: 2.22 ± 0.066 for the first, 3.38 ± 0.1 for the second.

Going from SAPAPAAAAPAPVAAAA [FAS2] to SASHILIPASDLSWSKQ [PRP8], the protein stability index falls from 3.24 ± 0.24 to 1.48 ± 0.069.

Compared with SAVIIDEFKDITKEVTQ [YIL149C/MLP2], SAYEASMVYSNVGELIE [RRP4] is lower in protein stability index: 2.76 ± 0.088 for the first, 1.64 ± 0.057 for the second.

Compared with SCGYPSAKTRSHNWAAK [RPL37B], SCISISDIISMLQISDD [RRI2] is lower in protein stability index: 2.95 ± 0.076 for the first, 1.82 ± 0.083 for the second.

Going from SCTLLERGHPKDNARIY [POP1] to SDGEDGHIPWHILAVKK [SSN2], the protein stability index rises from 1.87 ± 0.056 to 3.02 ± 0.11.

Compared with SDGQSRVKDIHLRKLLD [RET1], SDKPSLPSAVDGENDKK [YLR335W/NUP2] is higher in protein stability index: 2.88 ± 0.061 for the first, 3.4 ± 0.08 for the second.

SDNIASLQYINIRGNTI [SMD1] and SDPAAKKTATEPKQKAN [SRP21] are within error of each other in protein stability index: 3.08 ± 0.059 for the first, 3.21 ± 0.11 for the second.

First: SDPNNQSLNEMVKLIVM [YJL039C/NUP192]
Second: SDSLGPDTSNEICDLAY [SRB2]
The protein stability index of the first is lower: 2.66 ± 0.066 for the first, 2.95 ± 0.065 for the second.

First: SDWNPQADLQAMDRAHR [ISW2]
Second: SEDVSRDHEKDTYRTLM [YIL149C/MLP2]
The protein stability index of the first is lower: 2.93 ± 0.16 for the first, 3.36 ± 0.047 for the second.

First: SEEPTDFGFDLDIEKEA [MCD1]
Second: SEKQNDEEAAGASTVMK [PRP8]
The protein stability index of the first is lower: 2.77 ± 0.25 for the first, 3.36 ± 0.15 for the second.

SELIRTTLDAEKVFTQG [FAS1] and SELQRLSHENNVMLEKI [RPT5] are within error of each other in protein stability index: 3.14 ± 0.067 for the first, 3 ± 0.11 for the second.

Compared with SENRDKFLQEFINLLLN [IRR1], SESKQLGNTSSVANTPS [SWI3] is higher in protein stability index: 2.53 ± 0.069 for the first, 3.08 ± 0.071 for the second.

First: SESVGAFLSFLAYRNYW [YJL039C/NUP192]
Second: SEVLVDTLDSKSNGSSD [ISW2]
The protein stability index of the first is lower: 1.69 ± 0.073 for the first, 3.07 ± 0.07 for the second.

Compared with SFDFGNENEDEDEGTLN [ARP9], SFFIASQLQEQFNKILP [FAS1] is lower in protein stability index: 3.56 ± 0.14 for the first, 2.69 ± 0.15 for the second.

First: SFKGSPNERKAKQAKIR [SNF2]
Second: SFQKNSLHNTEKIMENK [AAR2]
The protein stability index of the first is higher: 3.36 ± 0.12 for the first, 3.08 ± 0.057 for the second.

Compared with SFSDENSDDFFMDNSYD [ESC2], SFYDAIFFNIPLVAHLG [YJL039C/NUP192] is lower in protein stability index: 1.97 ± 0.068 for the first, 1.73 ± 0.037 for the second.

First: SGEPIIAATQDFITGSY [RPO31]
Second: SGHFSTDSRTGQSTILV [CDC53]
The protein stability index of the first is higher: 3.36 ± 0.1 for the first, 2.83 ± 0.047 for the second.

SGITDPYEMYKYVHVSE [FAS2] and SGLFVDVKKRTYEAIDV [RPB2] are within error of each other in protein stability index: 2.33 ± 0.072 for the first, 2.48 ± 0.12 for the second.

SGNIQLDEIIEIARQMR [RPL12A] and SGNTNGAGSAFGFSSSG [YOR098C/NUP1] are within error of each other in protein stability index: 3.07 ± 0.12 for the first, 3.25 ± 0.071 for the second.

Compared with SGQTFAYGVLDSNYKWD [PRE2], SGRCDGYILEGEELAFY [RPS8A] is higher in protein stability index: 2.39 ± 0.075 for the first, 3.32 ± 0.12 for the second.

Compared with SGTSSDPDTKKVKESPA [YIL149C/MLP2], SGTYHLNCGNGMGIGFI [POP1] is lower in protein stability index: 3.21 ± 0.059 for the first, 3.07 ± 0.077 for the second.

Compared with SGYVRSRGESDDSLNRL [RPS21A], SHFVSAVSTIASISLAI [RPP0] is lower in protein stability index: 2.94 ± 0.14 for the first, 1.81 ± 0.073 for the second.

First: SHGNPVVDFLKRNGSTL [FAS1]
Second: SHILNSHSLALNEITNS [DSN1]
The protein stability index of the first is higher: 3.02 ± 0.052 for the first, 2.14 ± 0.033 for the second.

Going from SHKTTKEDTVSWFKQKY [RPL11A] to SHNWAAKAKRRHTTGTG [RPL37B], the protein stability index rises from 1.8 ± 0.064 to 3.29 ± 0.1.
